Assay: Proteinase K activity as a function of pH and after pH neutralization
Type: biochemical
Conditions: for recovery of proteinase K activity after neutralization: after exposure to highly acidic (pH 3.5) or basic (pH 12) conditions, neutralized to pH 7 to 7.5
Excerpt: FIGS. 1A-1C provide information on activating proteinase K at different pH conditions.
Another method of deblocking after nucleotide addition using a conjugated enzyme is to digest the protein around the extended DNA. Proteinase K (ProK) is a hydrolase that digests proteins at aliphatic and aromatic residues making it a broad-spectrum protease^1 that could be used to fully digest TdT releasing the extended DNA for the next round of addition. This enzymatic cleavage step could potentially be spatially controlled via an electrochemically driven pH change, as depicted in FIG. 1A. […] A voltage would then be applied to electrodes near the DNA site to be cleaved for the next addition. This would cause a shift in the pH near this active electrode that would re-activate ProK to digest nearby TdT molecules, deblocking the DNA for subsequent nucleotide addition. ProK has some natural pH sensitivity^1-2 and could be further engineered to shift the activity profile into a desirable pH range.

- recovery of proteinase K activity after neutralization: recovers
- recovery of proteinase K activity after neutralization (listed as ProK): activity can be recovered
- proteinase K activity (at pH 12.5): negligible activity
- proteinase K activity (relative to activity at pH 7.3) (below pH 5 and above pH 10): complete dropoff in activity
B1: Proteinase K: hydrolase that digests proteins at aliphatic and aromatic residues, a broad-spectrum protease (protein, UniProt P06873 106-384, looked up)
Proteinase K: AAQTNAPWGLARISSTSPGTSTYYYDESAGQGSCVYVIDTGIEASHPEFEGRAQMVKTYYYSSRDGNGHGTHCAGTVGSRTYGVAKKTQLFGVKVLDDNGSGQYSTIIAGMDFVASDKNNRNCPKGVVASLSLGGGYSSSVNSAAARLQSSGVMVAVAAGNNNADARNYSPASEPSVCTVGASDRYDRRSSFSNYGSVLDIFGPGTSILSTWIGGSTRSISGTSMATPHVAGLAAYLMTLGKTTAASACRYIADTANKGDLSNIPFGTVNLLAYNNYQA
